Assay results taken from patent US20180155451A1 (published 2018).

T1: FcγRIIa H (human, UniProt P12318 34-217)
T1 construct: extracellular domain; Soluble His-tagged extracellular domain expressed in FreeStyle293 cells; also called FcγRIIa type H; FcgRIIa H; not shown: His tag attached to the C terminus
T1 sequence (looked up): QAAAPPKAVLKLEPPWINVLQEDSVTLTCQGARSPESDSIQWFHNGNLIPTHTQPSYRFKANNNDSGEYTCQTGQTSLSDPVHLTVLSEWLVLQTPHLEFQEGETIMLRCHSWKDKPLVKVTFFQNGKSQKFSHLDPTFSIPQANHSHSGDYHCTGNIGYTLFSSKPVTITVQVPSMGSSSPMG

T2: FcγRIIb (human, UniProt P31994 43-217)
T2 construct: extracellular domain; Soluble His-tagged extracellular domain expressed in FreeStyle293 cells; also called FcgRIIb; 2b; not shown: His tag attached to the C terminus
T2 sequence (looked up): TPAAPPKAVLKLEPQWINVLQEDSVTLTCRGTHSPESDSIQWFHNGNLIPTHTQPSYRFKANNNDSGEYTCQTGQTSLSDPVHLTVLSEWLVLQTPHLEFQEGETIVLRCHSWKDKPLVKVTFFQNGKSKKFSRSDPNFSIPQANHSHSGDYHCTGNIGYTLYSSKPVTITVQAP

B1: GpH7-A5/GpH7-B3 variant A327_03V/GpL16-k0 (antibody, human IgG1, kappa)
heavy 1: not shown
heavy 2: not shown
light: DIVMTQSPLSLPVTPGEPASISCQASESLVHSNRNTYLHWYLQKPGQSPQLLIYKVSNRFSGVPDRFSGSGSGTDFTLKISRVEAEDVGVYYCSQNTHVPPTFGQGTKVEIERTVAAPSVFIFPPSDEQLKSGTASVVCLLNNFYPREAKVQWKVDNALQSGNSQESVTEQDSKDSTYSLSSTLTLSKADYEKHKVYACEVTHQGLSSPVTKSFNRGEC
notes: Heterodimerized anti-glypican-3 IgG1; mutation in the GpH7-B3 H chain only; also called He Ab
B2: GpH7-A5/GpH7-B3 variant A327_07I/GpL16-k0 (antibody, human IgG1, kappa)
heavy 1: not shown
heavy 2: not shown
light: B1 light
notes: as for B1
B3: GpH7-A5/GpH7-B3 variant A327_08L/GpL16-k0 (antibody, human IgG1, kappa)
heavy 1: not shown
heavy 2: not shown
light: B1 light
notes: as for B1
B4: GpH7-A5/GpH7-B3 variant A327_09D/GpL16-k0 (antibody, human IgG1, kappa)
heavy 1: not shown
heavy 2: not shown
light: B1 light
notes: as for B1
B5: GpH7-A5/GpH7-B3 variant A327_10E/GpL16-k0 (antibody, human IgG1, kappa)
heavy 1: not shown
heavy 2: not shown
light: B1 light
notes: as for B1
B6: GpH7-B3 variant S324_01G/GpL16-k0 (homodimerized antibody, Ho Ab) (antibody, human IgG1, kappa)
heavy: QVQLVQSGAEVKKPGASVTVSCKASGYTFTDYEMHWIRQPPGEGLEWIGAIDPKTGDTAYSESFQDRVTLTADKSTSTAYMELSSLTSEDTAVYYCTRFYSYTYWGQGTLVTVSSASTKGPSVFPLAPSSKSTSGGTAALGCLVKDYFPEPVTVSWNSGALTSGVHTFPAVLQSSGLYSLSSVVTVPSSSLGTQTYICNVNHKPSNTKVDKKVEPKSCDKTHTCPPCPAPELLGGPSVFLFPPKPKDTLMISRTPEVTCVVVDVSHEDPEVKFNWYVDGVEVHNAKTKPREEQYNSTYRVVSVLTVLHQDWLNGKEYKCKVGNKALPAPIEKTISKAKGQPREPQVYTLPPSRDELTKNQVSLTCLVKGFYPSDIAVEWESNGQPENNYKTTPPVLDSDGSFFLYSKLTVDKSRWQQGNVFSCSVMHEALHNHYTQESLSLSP
light: B1 light
notes: Mutation in both H chains; also called S324_01G Ho Ab
B7: GpH7-B3 variant S239_10E/GpL16-k0 (homodimerized antibody, Ho Ab) (antibody, human IgG1, kappa)
heavy: not shown
light: B1 light
notes: Mutation in both H chains; also called S239_10E Ho Ab
B8: GpH7-B3 variant S239_18N/GpL16-k0 (homodimerized antibody, Ho Ab) (antibody, human IgG1, kappa)
heavy: not shown
light: B1 light
notes: Mutation in both H chains; also called S239_18N Ho Ab
B9: GpH7-B3 variant S298_03V/GpL16-k0 (homodimerized antibody, Ho Ab) (antibody, human IgG1, kappa)
heavy: not shown
light: B1 light
notes: Mutation in both H chains; also called S298_03V Ho Ab
B10: GpH7-B3 variant S324_06M/GpL16-k0 (homodimerized antibody, Ho Ab) (antibody, human IgG1, kappa)
heavy: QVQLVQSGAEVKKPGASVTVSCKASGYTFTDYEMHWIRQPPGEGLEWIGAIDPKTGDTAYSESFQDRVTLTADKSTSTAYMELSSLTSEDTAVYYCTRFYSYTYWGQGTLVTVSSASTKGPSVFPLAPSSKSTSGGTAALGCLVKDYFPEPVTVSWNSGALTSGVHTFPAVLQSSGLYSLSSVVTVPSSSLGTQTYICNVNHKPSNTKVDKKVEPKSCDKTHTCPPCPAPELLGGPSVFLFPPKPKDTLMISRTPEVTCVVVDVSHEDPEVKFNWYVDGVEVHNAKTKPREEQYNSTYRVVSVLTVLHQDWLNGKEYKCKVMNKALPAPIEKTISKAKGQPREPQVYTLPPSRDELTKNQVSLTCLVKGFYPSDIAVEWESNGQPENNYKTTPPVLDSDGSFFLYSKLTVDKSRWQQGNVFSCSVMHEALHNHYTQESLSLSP
light: B1 light
notes: Mutation in both H chains; also called S324_06M Ho Ab
B11: GpH7-B3 variant S324_09D/GpL16-k0 (homodimerized antibody, Ho Ab) (antibody, human IgG1, kappa)
heavy: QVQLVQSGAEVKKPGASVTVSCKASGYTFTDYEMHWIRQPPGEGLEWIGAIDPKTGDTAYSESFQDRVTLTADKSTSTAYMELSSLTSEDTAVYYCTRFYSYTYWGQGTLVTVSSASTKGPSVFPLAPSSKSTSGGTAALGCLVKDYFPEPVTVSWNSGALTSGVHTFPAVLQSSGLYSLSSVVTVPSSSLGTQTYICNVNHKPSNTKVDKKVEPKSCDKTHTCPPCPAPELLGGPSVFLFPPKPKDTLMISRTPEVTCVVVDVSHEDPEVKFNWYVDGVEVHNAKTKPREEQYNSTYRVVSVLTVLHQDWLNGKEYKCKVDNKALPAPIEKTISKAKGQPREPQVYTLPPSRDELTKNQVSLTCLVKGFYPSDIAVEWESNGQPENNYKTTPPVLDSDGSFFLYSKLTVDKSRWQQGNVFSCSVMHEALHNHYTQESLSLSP
light: B1 light
notes: Mutation in both H chains; also called S324_09D Ho Ab
B12: GpH7-B3 variant S324_14T/GpL16-k0 (homodimerized antibody, Ho Ab) (antibody, human IgG1, kappa)
heavy: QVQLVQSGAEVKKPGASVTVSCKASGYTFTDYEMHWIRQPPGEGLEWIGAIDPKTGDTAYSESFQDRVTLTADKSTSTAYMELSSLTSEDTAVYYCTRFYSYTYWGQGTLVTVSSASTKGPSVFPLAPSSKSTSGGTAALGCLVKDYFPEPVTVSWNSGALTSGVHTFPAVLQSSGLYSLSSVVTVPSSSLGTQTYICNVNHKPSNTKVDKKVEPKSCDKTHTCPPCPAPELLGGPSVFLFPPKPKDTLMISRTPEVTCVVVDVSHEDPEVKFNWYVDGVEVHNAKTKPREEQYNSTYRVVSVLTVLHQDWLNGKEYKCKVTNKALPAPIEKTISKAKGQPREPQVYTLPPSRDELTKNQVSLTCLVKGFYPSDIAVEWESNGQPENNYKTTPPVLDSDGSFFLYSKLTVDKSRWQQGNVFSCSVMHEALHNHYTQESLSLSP
light: B1 light
notes: Mutation in both H chains; also called S324_14T Ho Ab
B13: GpH7-B3 variant S324_20W/GpL16-k0 (homodimerized antibody, Ho Ab) (antibody, human IgG1, kappa)
heavy: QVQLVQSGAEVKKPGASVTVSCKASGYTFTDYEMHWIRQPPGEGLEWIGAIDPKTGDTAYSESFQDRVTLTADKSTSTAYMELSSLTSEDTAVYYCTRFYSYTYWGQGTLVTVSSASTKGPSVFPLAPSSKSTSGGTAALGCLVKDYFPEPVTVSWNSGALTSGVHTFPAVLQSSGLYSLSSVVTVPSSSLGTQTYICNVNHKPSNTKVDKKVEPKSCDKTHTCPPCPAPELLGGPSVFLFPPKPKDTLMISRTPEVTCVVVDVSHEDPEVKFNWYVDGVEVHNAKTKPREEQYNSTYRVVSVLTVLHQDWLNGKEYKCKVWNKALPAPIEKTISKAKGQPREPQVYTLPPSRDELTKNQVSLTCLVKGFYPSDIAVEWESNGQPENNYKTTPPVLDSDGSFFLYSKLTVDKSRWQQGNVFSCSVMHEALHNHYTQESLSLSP
light: B1 light
notes: Mutation in both H chains; also called S324_20W Ho Ab
B14: GpH7-B3 variant S337_01G/GpL16-k0 (homodimerized antibody, Ho Ab) (antibody, human IgG1, kappa)
heavy: not shown
light: B1 light
notes: Mutation in both H chains; also called S337_01G Ho Ab
B15: GpH7-B3 variant S337_16H/GpL16-k0 (homodimerized antibody, Ho Ab) (antibody, human IgG1, kappa)
heavy: not shown
light: B1 light
notes: Mutation in both H chains; also called S337_16H Ho Ab
B16: GpH7-B3 variant T335_05P/GpL16-k0 (homodimerized antibody, Ho Ab) (antibody, human IgG1, kappa)
heavy: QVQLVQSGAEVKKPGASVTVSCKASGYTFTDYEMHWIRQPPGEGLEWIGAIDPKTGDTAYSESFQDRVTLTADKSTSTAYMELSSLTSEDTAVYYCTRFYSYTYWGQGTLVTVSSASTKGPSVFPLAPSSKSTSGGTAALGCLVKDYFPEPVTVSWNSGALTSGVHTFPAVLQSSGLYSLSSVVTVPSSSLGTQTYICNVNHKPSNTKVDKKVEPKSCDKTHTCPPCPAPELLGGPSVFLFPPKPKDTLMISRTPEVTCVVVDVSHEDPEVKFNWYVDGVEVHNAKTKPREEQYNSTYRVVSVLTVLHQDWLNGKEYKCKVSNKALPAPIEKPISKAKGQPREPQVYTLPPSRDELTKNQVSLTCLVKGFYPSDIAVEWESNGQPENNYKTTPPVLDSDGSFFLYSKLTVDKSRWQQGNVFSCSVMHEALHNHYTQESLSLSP
light: B1 light
notes: Mutation in both H chains; also called T335_05P Ho Ab
B17: GpH7-B3 variant T335_06M/GpL16-k0 (homodimerized antibody, Ho Ab) (antibody, human IgG1, kappa)
heavy: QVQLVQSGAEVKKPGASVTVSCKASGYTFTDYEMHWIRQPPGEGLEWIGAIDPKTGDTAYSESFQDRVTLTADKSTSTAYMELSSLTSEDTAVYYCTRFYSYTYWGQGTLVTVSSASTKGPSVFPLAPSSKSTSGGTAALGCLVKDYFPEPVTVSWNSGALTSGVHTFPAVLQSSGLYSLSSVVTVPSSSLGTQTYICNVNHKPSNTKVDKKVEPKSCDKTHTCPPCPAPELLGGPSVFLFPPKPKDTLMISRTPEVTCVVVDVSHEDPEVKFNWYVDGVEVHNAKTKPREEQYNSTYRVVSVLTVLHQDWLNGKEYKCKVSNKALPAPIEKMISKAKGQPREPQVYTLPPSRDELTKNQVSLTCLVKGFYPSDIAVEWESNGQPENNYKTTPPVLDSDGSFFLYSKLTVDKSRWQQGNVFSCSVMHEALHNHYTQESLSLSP
light: B1 light
notes: Mutation in both H chains; also called T335_06M Ho Ab
B18: GpH7-B3 variant T335_08L/GpL16-k0 (homodimerized antibody, Ho Ab) (antibody, human IgG1, kappa)
heavy: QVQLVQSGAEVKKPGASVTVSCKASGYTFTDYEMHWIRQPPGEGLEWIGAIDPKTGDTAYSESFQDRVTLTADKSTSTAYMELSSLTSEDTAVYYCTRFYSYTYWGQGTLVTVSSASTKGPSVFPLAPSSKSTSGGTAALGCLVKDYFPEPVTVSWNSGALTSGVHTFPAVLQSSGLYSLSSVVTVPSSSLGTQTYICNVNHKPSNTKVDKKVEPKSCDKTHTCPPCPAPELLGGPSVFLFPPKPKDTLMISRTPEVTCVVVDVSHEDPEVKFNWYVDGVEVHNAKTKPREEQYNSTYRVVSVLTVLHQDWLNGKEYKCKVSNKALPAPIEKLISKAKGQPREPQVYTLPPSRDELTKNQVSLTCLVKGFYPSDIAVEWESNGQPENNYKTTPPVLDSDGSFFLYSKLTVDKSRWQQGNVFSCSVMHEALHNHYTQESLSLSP
light: B1 light
notes: Mutation in both H chains; also called T335_08L Ho Ab
B19: GpH7-B3 variant T335_09D/GpL16-k0 (homodimerized antibody, Ho Ab) (antibody, human IgG1, kappa)
heavy: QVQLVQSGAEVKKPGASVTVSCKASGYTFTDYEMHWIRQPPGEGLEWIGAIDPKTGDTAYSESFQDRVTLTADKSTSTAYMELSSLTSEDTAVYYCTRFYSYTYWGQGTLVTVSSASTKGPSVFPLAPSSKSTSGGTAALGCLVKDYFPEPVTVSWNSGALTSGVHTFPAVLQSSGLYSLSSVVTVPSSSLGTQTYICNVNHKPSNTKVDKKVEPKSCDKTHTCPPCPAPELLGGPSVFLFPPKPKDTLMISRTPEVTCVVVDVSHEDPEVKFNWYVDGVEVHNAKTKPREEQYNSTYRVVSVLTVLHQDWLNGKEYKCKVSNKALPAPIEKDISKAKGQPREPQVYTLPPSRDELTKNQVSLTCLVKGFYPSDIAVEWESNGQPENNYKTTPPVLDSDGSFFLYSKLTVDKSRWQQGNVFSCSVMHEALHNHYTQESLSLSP
light: B1 light
notes: Mutation in both H chains; also called T335_09D Ho Ab
B20: GpH7-B3 variant Y296_20W/GpL16-k0 (homodimerized antibody, Ho Ab) (antibody, human IgG1, kappa)
heavy: not shown
light: B1 light
notes: Mutation in both H chains; also called Y296_20W Ho Ab
B21: GpH7-B3 variant Y300_08L/GpL16-k0 (homodimerized antibody, Ho Ab) (antibody, human IgG1, kappa)
heavy: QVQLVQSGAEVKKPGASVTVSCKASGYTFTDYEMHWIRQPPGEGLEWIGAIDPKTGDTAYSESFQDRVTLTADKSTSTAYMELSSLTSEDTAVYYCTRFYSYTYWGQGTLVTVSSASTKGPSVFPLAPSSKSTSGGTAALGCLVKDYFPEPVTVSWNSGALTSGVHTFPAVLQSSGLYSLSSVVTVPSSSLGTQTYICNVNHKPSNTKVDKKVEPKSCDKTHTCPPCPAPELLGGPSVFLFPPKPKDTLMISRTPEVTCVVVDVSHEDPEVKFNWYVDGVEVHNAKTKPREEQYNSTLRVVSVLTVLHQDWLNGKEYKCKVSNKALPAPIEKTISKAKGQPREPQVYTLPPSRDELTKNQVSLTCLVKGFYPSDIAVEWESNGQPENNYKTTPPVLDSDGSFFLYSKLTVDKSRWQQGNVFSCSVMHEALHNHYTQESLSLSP
light: B1 light
notes: Mutation in both H chains; also called Y300_08L Ho Ab

Each binder was assayed against T1, FcγRIIa H (assay: SPR (Biacore); He/Con_2aH divided by He/Con_2b (FcγRIIb) of the same antibody).
Experimental: The heterodimerized antibodies He Abs in which one of the H chains was introduced with an alteration were assayed for their binding activities to each activating FcγR and inhibitory FcγR according to the method described in Example 4. […] The activating FcγRs in FIGS. 26, 27, 28, and 29 are FcγRIa, FcγRIIa (R), FcγRIIa (H), and FcγRIIIa, respectively.
(§1) Analysis of interaction between objective antibody and the FcγR was carried out using Biacore T100 (GE Healthcare). HBS-EP+ (GE Healthcare) was used as the running buffer, and the measurement temperature was set to 25° C. Chips produced by immobilizing the antigen peptide by the amine coupling method to a Series S Sencor Chip CM5 (GE Healthcare), or alternatively, chips produced by allowing preliminarily biotinylated antigen peptides to interact with and immobilize onto a Series S Sensor Chip SA (certified) (GE Healthcare) were used. Antibodies of interest were captured onto an antigen peptide-immobilized chip, and allowed to interact to each FcγR diluted with running buffer. To regenerate and repeatedly use the chip, the antibodies captured on the chip were washed off by reacting 10 mM glycine-HCl, pH 1.5.

He_2aH/2b [ratio]	Binder
0.54	B1
0.46	B2
0.74	B3
0.61	B4
0.65	B5

These binders were tested against T3, FcγRIIIa extracellular domain with C-terminal His tag (human, UniProt P08637 17-208) (assay: SPR (Biacore), antibody captured on antigen-peptide chip, FcγR analyte, relative binding).
T3 construct: extracellular domain; also called 3a; FcgRIIIa
T3 sequence (P08637 17-208): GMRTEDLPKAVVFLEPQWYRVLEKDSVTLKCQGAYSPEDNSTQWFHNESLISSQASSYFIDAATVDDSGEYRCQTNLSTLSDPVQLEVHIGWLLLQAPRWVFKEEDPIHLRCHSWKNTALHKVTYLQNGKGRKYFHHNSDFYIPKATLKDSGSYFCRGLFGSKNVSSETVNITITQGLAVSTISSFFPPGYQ

Ho/Con_3a	Binder
119 % of GpH7-B3/GpL16-k0 (=100)	B6
252 % of GpH7-B3/GpL16-k0 (=100)	B7
116 % of GpH7-B3/GpL16-k0 (=100)	B8
110 % of GpH7-B3/GpL16-k0 (=100)	B9
114 % of GpH7-B3/GpL16-k0 (=100)	B10
101 % of GpH7-B3/GpL16-k0 (=100)	B11
108 % of GpH7-B3/GpL16-k0 (=100)	B12
102 % of GpH7-B3/GpL16-k0 (=100)	B13
108 % of GpH7-B3/GpL16-k0 (=100)	B14
112 % of GpH7-B3/GpL16-k0 (=100)	B15
119 % of GpH7-B3/GpL16-k0 (=100)	B16
107 % of GpH7-B3/GpL16-k0 (=100)	B17
103 % of GpH7-B3/GpL16-k0 (=100)	B18
114 % of GpH7-B3/GpL16-k0 (=100)	B19
146 % of GpH7-B3/GpL16-k0 (=100)	B20
105 % of GpH7-B3/GpL16-k0 (=100)	B21

Each binder was assayed against T1, FcγRIIa H (assay: SPR (Biacore), captured antibody, FcγR analyte; relative to GpH7-A5/GpH7-B3/GpL16-k0 = 100).
Experimental: as §1
(§2) The FcγR-binding activity of each antibody was assessed primarily using as an indicator the FcγR-binding activity and dissociation constant for FcγR.

He/Con_2aH	Binder
51 relative (control = 100)	B1
58.4 relative (control = 100)	B2
46.9 relative (control = 100)	B3
105 relative (control = 100)	B4
91.3 relative (control = 100)	B5

Each binder was assayed against T2, FcγRIIb in the same assay as above.
Experimental: as §1, §2

He/Con_2b	Binder
94.7 relative (control = 100)	B1
127 relative (control = 100)	B2
63.1 relative (control = 100)	B3
172 relative (control = 100)	B4
140 relative (control = 100)	B5
